Data published in paper PMC9537309.

B1: FLAG-tagged DND1 wild-type (Dead End, full-length human protein 1-353) [human] / MEX3A [human (endogenous in HEK293T)] (parent)
chain 1: MQSKRDCELWCERVNPENKAALEAWVRETGIRLVQVNGQRKYGGPPPGWVGSPPPAGSEVFIGRLPQDVYEHQLIPLFQRVGRLYEFRLMMTFSGLNRGFAYARYSSRRGAQAAIATLHNHPLRPSCPLLVCRSTEKCELSVDGLPPNLTRSALLLALQPLGPGLQEARLLPSPGPAPGQIALLKFSSHRAAAMAKKALVEGQSHLCGEQVAVEWLKPDLKQRLRQQLVGPFLRSPQPEGSQLALARDKLGFQGARATLQLLCQRMKLGSPVFLTKCLGIGPAGWHRFWYQVVIPGHPVPFSGLIWVVLTLDGRDGHEVAKDAVSVRLLQALSESGANLLWSAGAEAGTMVKQ
chain 2: MPSLVVSGIMERNGGFGELGCFGGSAKDRGLLEDERALQLALDQLCLLGLGEPPAPTAGEDGGGGGGGAPAQPAAPPQPAPPPPPAAPPAAPTAAPAAQTPQPPTAPKGASDAKLCALYKEAELRLKGSSNTTECVPVPTSEHVAEIVGRQGCKIKALRAKTNTYIKTPVRGEEPVFMVTGRREDVATARREIISAAEHFSMIRASRNKSGAAFGVAPALPGQVTIRVRVPYRVVGLVVGPKGATIKRIQQQTNTYIITPSRDRDPVFEITGAPGNVERAREEIETHIAVRTGKILEYNNENDFLAGSPDAAIDSRYSDAWRVHQPGCKPLSTFRQNSLGCIGECGVDSGFEAPRLGEQGGDFGYGGYLFPGYGVGKQDVYYGVAETSPPLWAGQENATPTSVLFSSASSSSSSSAKARAGPPGAHRSPATSAGPELAGLPRRPPGEPLQGFSKLGGGGLRSPGGGRDCMVCFESEVTAALVPCGHNLFCMECAVRICERTDPECPVCHITATQAIRIFS
B2: FLAG-tagged DND1 wild-type (Dead End, full-length human protein 1-353) [human] / SYNCRIP [human (endogenous in HEK293T)] (parent)
chain 1: B1 chain 1
chain 2: MATEHVNGNGTEEPMDTTSAVIHSENFQTLLDAGLPQKVAEKLDEIYVAGLVAHSDLDERAIEALKEFNEDGALAVLQQFKDSDLSHVQNKSAFLCGVMKTYRQREKQGTKVADSSKGPDEAKIKALLERTGYTLDVTTGQRKYGGPPPDSVYSGQQPSVGTEIFVGKIPRDLFEDELVPLFEKAGPIWDLRLMMDPLTGLNRGYAFVTFCTKEAAQEAVKLYNNHEIRSGKHIGVCISVANNRLFVGSIPKSKTKEQILEEFSKVTEGLTDVILYHQPDDKKKNRGFCFLEYEDHKTAAQARRRLMSGKVKVWGNVGTVEWADPIEDPDPEVMAKVKVLFVRNLANTVTEEILEKAFSQFGKLERVKKLKDYAFIHFDERDGAVKAMEEMNGKDLEGENIEIVFAKPPDQKRKERKAQRQAAKNQMYDDYYYYGPPHMPPPTRGRGRGGRGGYGYPPDYYGYEDYYDYYGYDYHNYRGGYEDPYYGYEDFQVGARGRGGRGARGAAPSRGRGAAPPRGRAGYSQRGGPGSARGVRGARGGAQQQRGRGVRGARGGRGGNVGGKRKADGYNQPDSKRRQTNNQNWGSQPIAQQPLQGGDHSGNYGYKSENQEFYQDTFGQQWK
B3: FLAG-tagged DND1 wild-type (Dead End, full-length human protein 1-353) [human] / MATR3 [human (endogenous in HEK293T)] (parent)
chain 1: B1 chain 1
chain 2: MSKSFQQSSLSRDSQGHGRDLSAAGIGLLAAATQSLSMPASLGRMNQGTARLASLMNLGMSSSLNQQGAHSALSSASTSSHNLQSIFNIGSRGPLPLSSQHRGDADQASNILASFGLSARDLDELSRYPEDKITPENLPQILLQLKRRRTEEGPTLSYGRDGRSATREPPYRVPRDDWEEKRHFRRDSFDDRGPSLNPVLDYDHGSRSQESGYYDRMDYEDDRLRDGERCRDDSFFGETSHNYHKFDSEYERMGRGPGPLQERSLFEKKRGAPPSSNIEDFHGLLPKGYPHLCSICDLPVHSNKEWSQHINGASHSRRCQLLLEIYPEWNPDNDTGHTMGDPFMLQQSTNPAPGILGPPPPSFHLGGPAVGPRGNLGAGNGNLQGPRHMQKGRVETSRVVHIMDFQRGKNLRYQLLQLVEPFGVISNHLILNKINEAFIEMATTEDAQAAVDYYTTTPALVFGKPVRVHLSQKYKRIKKPEGKPDQKFDQKQELGRVIHLSNLPHSGYSDSAVLKLAEPYGKIKNYILMRMKSQAFIEMETREDAMAMVDHCLKKALWFQGRCVKVDLSEKYKKLVLRIPNRGIDLLKKDKSRKRSYSPDGKESPSDKKSKTDGSQKTESSTEGKEQEEKSGEDGEKDTKDDQTEQEPNMLLESEDELLVDEEEAAALLESGSSVGDETDLANLGDVASDGKKEPSDKAVKKDGSASAAAKKKLKKVDKIEELDQENEAALENGIKNEENTEPGAESSENADDPNKDTSENADGQSDENKDDYTIPDEYRIGPYQPNVPVGIDYVIPKTGFYCKLCSLFYTNEEVAKNTHCSSLPHYQKLKKFLNKLAEERRQKKET
B4: FLAG-tagged DND1 wild-type (Dead End, full-length human protein 1-353) [human] / HNRNPL [human (endogenous in HEK293T)] (parent)
chain 1: B1 chain 1
chain 2: MSRRLLPRAEKRRRRLEQRQQPDEQRRRSGAMVKMAAAGGGGGGGRYYGGGSEGGRAPKRLKTDNAGDQHGGGGGGGGGAGAAGGGGGGENYDDPHKTPASPVVHIRGLIDGVVEADLVEALQEFGPISYVVVMPKKRQALVEFEDVLGACNAVNYAADNQIYIAGHPAFVNYSTSQKISRPGDSDDSRSVNSVLLFTILNPIYSITTDVLYTICNPCGPVQRIVIFRKNGVQAMVEFDSVQSAQRAKASLNGADIYSGCCTLKIEYAKPTRLNVFKNDQDTWDYTNPNLSGQGDPGSNPNKRQRQPPLLGDHPAEYGGPHGGYHSHYHDEGYGPPPPHYEGRRMGPPVGGHRRGPSRYGPQYGHPPPPPPPPEYGPHADSPVLMVYGLDQSKMNCDRVFNVFCLYGNVEKVKFMKSKPGAAMVEMADGYAVDRAITHLNNNFMFGQKLNVCVSKQPAIMPGQSYGLEDGSCSYKDFSESRNNRFSTPEQAAKNRIQHPSNVLHFFNAPLEVTEENFFEICDELGVKRPSSVKVFSGKSERSSSGLLEWESKSDALETLGFLNHYQMKNPNGPYPYTLKLCFSTAQHAS

Variants of: B1
Assay: FLAG immunoprecipitation and LC/ESI-MS/MS
Conditions: with MEX3A [human (endogenous in HEK293T)]; HEK293T cells, three biological replicates; read off a plot

screen value | Variant
-3.2 | chain 1 MQSKRDCELWCERVNPENKAALEAWVRETGIRLVQVNGQRKYGGPPPGWVGSPPPAGSEVFIGRLPQDVYEHQLIPLFQRVGRLYEFRLMMTFSGLNAGFAYARYSSRRGAQAAIATLHNHPLRPSCPLLVCRSTEKCELSVDGLPPNLTRSALLLALQPLGPGLQEARLLPSPGPAPGQIALLKFSSHRAAAMAKKALVEGQSHLCGEQVAVEWLKPDLKQRLRQQLVGPFLRSPQPEGSQLALARDKLGFQGARATLQLLCQRMKLGSPVFLTKCLGIGPAGWHRFWYQVVIPGHPVPFSGLIWVVLTLDGRDGHEVAKDAVSVRLLQALSESGANLLWSAGAEAGTMVKQ [chain 1 R98A]

Variants of: B2
Assay: FLAG immunoprecipitation and LC/ESI-MS/MS
Conditions: with SYNCRIP [human (endogenous in HEK293T)]; HEK293T cells, three biological replicates; read off a plot

screen value | Variant
-2.5 | chain 1 MQSKRDCELWCERVNPENKAALEAWVRETGIRLVQVNGQRKYGGPPPGWVGSPPPAGSEVFIGRLPQDVYEHQLIPLFQRVGRLYEFRLMMTFSGLNAGFAYARYSSRRGAQAAIATLHNHPLRPSCPLLVCRSTEKCELSVDGLPPNLTRSALLLALQPLGPGLQEARLLPSPGPAPGQIALLKFSSHRAAAMAKKALVEGQSHLCGEQVAVEWLKPDLKQRLRQQLVGPFLRSPQPEGSQLALARDKLGFQGARATLQLLCQRMKLGSPVFLTKCLGIGPAGWHRFWYQVVIPGHPVPFSGLIWVVLTLDGRDGHEVAKDAVSVRLLQALSESGANLLWSAGAEAGTMVKQ [chain 1 R98A]

Variants of: B3
Assay: FLAG immunoprecipitation and LC/ESI-MS/MS
Conditions: with MATR3 [human (endogenous in HEK293T)]; HEK293T cells, three biological replicates; read off a plot

screen value | Variant
-0.52 | chain 1 MQSKRDCELWCERVNPENKAALEAWVRETGIRLVQVNGQRKYGGPPPGWVGSPPPAGSEVFIGRLPQDVYEHQLIPLFQRVGRLYEFRLMMTFSGLNAGFAYARYSSRRGAQAAIATLHNHPLRPSCPLLVCRSTEKCELSVDGLPPNLTRSALLLALQPLGPGLQEARLLPSPGPAPGQIALLKFSSHRAAAMAKKALVEGQSHLCGEQVAVEWLKPDLKQRLRQQLVGPFLRSPQPEGSQLALARDKLGFQGARATLQLLCQRMKLGSPVFLTKCLGIGPAGWHRFWYQVVIPGHPVPFSGLIWVVLTLDGRDGHEVAKDAVSVRLLQALSESGANLLWSAGAEAGTMVKQ [chain 1 R98A]

Variants of: B4
Assay: FLAG immunoprecipitation and LC/ESI-MS/MS
Conditions: with HNRNPL [human (endogenous in HEK293T)]; HEK293T cells, three biological replicates; read off a plot

screen value | Variant
-1.7 | chain 1 MQSKRDCELWCERVNPENKAALEAWVRETGIRLVQVNGQRKYGGPPPGWVGSPPPAGSEVFIGRLPQDVYEHQLIPLFQRVGRLYEFRLMMTFSGLNAGFAYARYSSRRGAQAAIATLHNHPLRPSCPLLVCRSTEKCELSVDGLPPNLTRSALLLALQPLGPGLQEARLLPSPGPAPGQIALLKFSSHRAAAMAKKALVEGQSHLCGEQVAVEWLKPDLKQRLRQQLVGPFLRSPQPEGSQLALARDKLGFQGARATLQLLCQRMKLGSPVFLTKCLGIGPAGWHRFWYQVVIPGHPVPFSGLIWVVLTLDGRDGHEVAKDAVSVRLLQALSESGANLLWSAGAEAGTMVKQ [chain 1 R98A]
